B1: anti-Siglec-7 antibody 4B12 (antibody, V domains shown)
VH: EVQLQQSGPELVKPGASVKIPCKASGYTFTDYNMDWVKQSHEKSLEWIGDIDPHNGVTLYNQKFKDKATLTIDKSSNTAYMELRSLTSEDSAVYYCALTGSTYWGQGTLVTVSA
VL: DIVMTQSQKFMSTSVGDRVSVTCKASQNVGTNVAWYQQKPGQSPKAVIYSASYRNSGVPDRFTGSGSGTDFTLTISNVQSEDLTEYFCQQYNNYPYTFGGGTKLEIK
notes: Used as an AF647 conjugate for detection in the internalization assay; also called 4B12-AF647
B2: humanized 16H11-derived Fab, VH AK446-7 / VL AK418-2 (Fab, V domains shown)
VH: QVQLVQSGAEVKKPGSSVKVSCKASGYDFSNFWMNWVRQAPGQGLEWMGQIYPGDGEIKYNQKFQGRVTITADESTSTAYMELSSLRSEDTAVYYCARDDYLRAMDIWGQGTMVTVSS
VL: DIQMTQSPSSLSASVGDRVTITCRASGNIHNYLAWYQQKPGKAPKFLLYSAKRLESGVPSRFSGSGSGTDYTLTISSLQPEDFATYYCQHFWSSPYTFGGGTKVEIK
notes: Measured as monovalent Fab; also called No. 33; AK446-7/AK418-2
B3: humanized 16H11-derived Fab, VH AK444-2 / VL AK418-2 (Fab, V domains shown)
VH: B2 VH with Y95F, I107Y, M113L
VL: B2 VL
notes: Measured as monovalent Fab; also called No. 24; VH444-2 and VL418-2
B4: humanized 16H11-derived Fab, VH AK441-2 / VL AK418-2 (Fab, V domains shown)
VH: B2 VH with A24G, I70L
VL: B2 VL
notes: Measured as monovalent Fab; also called No. 19; VH441-2 and VL418-2
B5: humanized 16H11-derived Fab, VH AK445-3 / VL AK418-2 (Fab, V domains shown)
VH: B2 VH with I70L
VL: B2 VL
notes: Measured as monovalent Fab; also called No. 25; VH445-3 and VL418-2
B6: humanized 16H11-derived Fab, VH AK446-7 / VL AK448-3 (Fab, V domains shown)
VH: B2 VH
VL: B2 VL with G27Q, G100Q, V104L
notes: Measured as monovalent Fab; also called No. 34; AK446-7/AK448-3
B7: humanized 16H11-derived Fab, VH AK463-2 / VL AK418-2 (Fab, V domains shown)
VH: B2 VH with I107Y, M113L
VL: B2 VL
notes: Measured as monovalent Fab; also called No. 35; VH463-2 and VL418-2
B8: humanized 16H11-derived Fab, VH AK465-17 / VL AK419-2 (Fab, V domains shown)
VH: B2 VH with N61A
VL: B2 VL with G27Q
notes: Measured as monovalent Fab; also called No. 40
B9: humanized 16H11-derived Fab, VH AK417-17 / VL AK427-1 (Fab, V domains shown)
VH: B2 VH with Q50G, K59N, N61A
VL: B2 VL with G27Q, F46L, S56D
notes: Measured as monovalent Fab; also called No. 10
B10: humanized 16H11-derived Fab, VH AK484-7 / VL AK448-3 (Fab, V domains shown)
VH: B2 VH with F32Y, I107Y, M113L
VL: B2 VL with G27Q, G100Q, V104L
notes: Measured as monovalent Fab; also called No. 44; VH484-7 and VL448-3
B11: humanized 16H11-derived Fab, VH AK484-6 / VL AK448-3 (Fab, V domains shown)
VH: B2 VH with F32Y
VL: B2 VL with G27Q, G100Q, V104L
notes: Measured as monovalent Fab; also called No. 43; VH484-6 and VL448-3
B12: humanized 16H11-derived Fab, VH AK417-8 / VL AK439-5 (Fab, V domains shown)
VH: B2 VH with Q50G, K59N, N61A, I107V
VL: B2 VL with G27Q, S56D, G100Q, V104L
notes: Measured as monovalent Fab; also called No. 22
B13: humanized 16H11-derived Fab, VH AK417-17 / VL AK424-1 (Fab, V domains shown)
VH: B2 VH with Q50G, K59N, N61A
VL: B2 VL with F46L, E55A
notes: Measured as monovalent Fab; also called No. 7
B14: humanized 16H11-derived Fab, VH AK447-2 / VL AK448-3 (Fab, V domains shown)
VH: B2 VH with K59N
VL: B2 VL with G27Q, G100Q, V104L
notes: Measured as monovalent Fab; also called No. 27
B15: humanized 16H11-derived Fab, VH AK485-4 / VL AK448-3 (Fab, V domains shown)
VH: B2 VH with W33A, I107Y, M113L
VL: B2 VL with G27Q, G100Q, V104L
notes: Measured as monovalent Fab; also called No. 47
B16: humanized 16H11-derived Fab, VH AK485-5 / VL AK418-2 (Fab, V domains shown)
VH: B2 VH with W33A
VL: B2 VL
notes: Measured as monovalent Fab; also called No. 45
B17: humanized 16H11-derived Fab, VH AK438-4 / VL AK418-2 (Fab, V domains shown)
VH: B2 VH with I70L, Y95F, I107Y, M113L
VL: B2 VL
notes: Measured as monovalent Fab; also called No. 17; VH438-4 and VL418-2
B18: humanized 16H11-derived Fab, VH AK463-2 / VL AK419-2 (Fab, V domains shown)
VH: B2 VH with I107Y, M113L
VL: B2 VL with G27Q
notes: Measured as monovalent Fab; also called No. 38
B19: humanized 16H11-derived Fab, VH AK447-2 / VL AK418-2 (Fab, V domains shown)
VH: B2 VH with K59N
VL: B2 VL
notes: Measured as monovalent Fab; also called No. 26
B20: humanized 16H11-derived Fab, VH AK449-6 / VL AK418-2 (Fab, V domains shown)
VH: B2 VH with A24G, Q50G
VL: B2 VL
notes: Measured as monovalent Fab; also called No. 30; VH449-6 and VL418-2
B21: humanized 16H11-derived Fab, VH AK417-17 / VL AK439-5 (Fab, V domains shown)
VH: B2 VH with Q50G, K59N, N61A
VL: B2 VL with G27Q, S56D, G100Q, V104L
notes: Measured as monovalent Fab; also called No. 21
B22: humanized 16H11-derived Fab, VH AK440-2 / VL AK418-2 (Fab, V domains shown)
VH: B2 VH with A24G, Y95F, I107Y, M113L
VL: B2 VL
notes: Measured as monovalent Fab; also called No. 18; VH440-2 and VL418-2
B23: humanized 16H11-derived Fab, VH AK417-17 / VL AK425-3 (Fab, V domains shown)
VH: B2 VH with Q50G, K59N, N61A
VL: B2 VL with F46L, S56D
notes: Measured as monovalent Fab; also called No. 8
B24: humanized 16H11-derived Fab, VH AK387-11 / VL AK418-2 (Fab, V domains shown)
VH: B2 VH with A24G, I70L, Y95F, I107Y, M113L
VL: B2 VL
notes: Measured as monovalent Fab; also called No. 32; VH387-11 and VL418-2
B25: humanized 16H11-derived Fab, VH AK485-5 / VL AK448-3 (Fab, V domains shown)
VH: B2 VH with W33A
VL: B2 VL with G27Q, G100Q, V104L
notes: Measured as monovalent Fab; also called No. 46
B26: humanized 16H11-derived Fab, VH AK446-7 / VL AK419-2 (Fab, V domains shown)
VH: B2 VH
VL: B2 VL with G27Q
notes: Measured as monovalent Fab; also called No. 37
B27: humanized 16H11-derived Fab, VH AK465-17 / VL AK448-3 (Fab, V domains shown)
VH: B2 VH with N61A
VL: B2 VL with G27Q, G100Q, V104L
notes: Measured as monovalent Fab; also called No. 41
B28: humanized 16H11-derived Fab, VH AK484-6 / VL AK418-2 (Fab, V domains shown)
VH: B2 VH with F32Y
VL: B2 VL
notes: Measured as monovalent Fab; also called No. 42; VH484-6 and VL418-2
B29: humanized 16H11-derived Fab, VH AK465-17 / VL AK418-2 (Fab, V domains shown)
VH: B2 VH with N61A
VL: B2 VL
notes: Measured as monovalent Fab; also called No. 39; FH465-17 and VL418-2
B30: humanized 16H11-derived Fab, VH AK417-17 / VL AK426-2 (Fab, V domains shown)
VH: B2 VH with Q50G, K59N, N61A
VL: B2 VL with G27Q, F46L, E55A
notes: Measured as monovalent Fab; also called No. 9
B31: humanized 16H11-derived Fab, VH AK463-2 / VL AK448-3 (Fab, V domains shown)
VH: B2 VH with I107Y, M113L
VL: B2 VL with G27Q, G100Q, V104L
notes: Measured as monovalent Fab; also called No. 36; Vh463-2 and VL448-3
B32: humanized 16H11-derived Fab, VH AK410-1 / VL AK418-2 (Fab, V domains shown)
VH: B2 VH with Q50G, K59N, N61A, I107Y, M113L
VL: B2 VL
notes: Measured as monovalent Fab; also called No. 1; AK410-1/AK418-2
B33: humanized 16H11-derived Fab, VH AK449-6 / VL AK448-3 (Fab, V domains shown)
VH: B2 VH with A24G, Q50G
VL: B2 VL with G27Q, G100Q, V104L
notes: Measured as monovalent Fab; also called No. 31
B34: humanized 16H11-derived Fab, VH AK449-4 / VL AK448-3 (Fab, V domains shown)
VH: B2 VH with Q50G
VL: B2 VL with G27Q, G100Q, V104L
notes: Measured as monovalent Fab; also called No. 29; VH449-4 and VL448-3
B35: humanized 16H11-derived Fab, VH AK417-17 / VL AK421-3 (Fab, V domains shown)
VH: B2 VH with Q50G, K59N, N61A
VL: B2 VL with G100Q, V104L
notes: Measured as monovalent Fab; also called No. 5
B36: humanized 16H11-derived Fab, VH AK449-4 / VL AK418-2 (Fab, V domains shown)
VH: B2 VH with Q50G
VL: B2 VL
notes: Measured as monovalent Fab; also called No. 28
B37: humanized 16H11-derived Fab, VH AK443-1 / VL AK418-2 (Fab, V domains shown)
VH: B2 VH with A24G
VL: B2 VL
notes: Measured as monovalent Fab; also called No. 23; VH443-1 and VL418-2
B38: 13D2 (antibody, V domains shown)
VH: DVQLQESGPGMVKPSQSLSLTCTVTGYSITSDYDWHWIRHFPGNKLEWMGYISYSGSTKYNPSLKSRISITHDTSKNHFFLKLNSVTAEDTATYYCARENDFPGFWYFDVWGTGTTVTVSS
VL: DIVMSQSPSSQVVSVGEKVTVTCTSSQSLLYGTNQKNYLAWYQQKPGQSPKLLIYWASIRESGVPDRFTGSGSGTDFTLTISSVKAEDLAVYYCQQYYSYPLTFGAGTKLELK

The values that follow come from US20190194323A1 (ALLAKOS, published 2019).

Changes are numbered by the printed parent chain.

T1 sequence (Q9Y286 19-353 limits assumed): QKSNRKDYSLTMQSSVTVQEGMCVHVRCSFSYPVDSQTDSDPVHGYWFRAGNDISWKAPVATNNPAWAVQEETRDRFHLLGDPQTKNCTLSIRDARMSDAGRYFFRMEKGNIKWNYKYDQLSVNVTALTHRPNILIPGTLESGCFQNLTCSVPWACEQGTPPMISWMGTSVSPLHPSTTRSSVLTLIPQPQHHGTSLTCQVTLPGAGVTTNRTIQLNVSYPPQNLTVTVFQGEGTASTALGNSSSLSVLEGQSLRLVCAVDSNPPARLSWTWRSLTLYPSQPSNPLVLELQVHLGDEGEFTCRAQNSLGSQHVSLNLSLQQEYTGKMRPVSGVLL

One experiment concerns the target T1, Siglec-7-ECD (human, UniProt Q9Y286 19-353).
T1 construct: also called p75; AIRM
The experiment in a line: bio-layer interferometry (ForteBio): antibody captured on the sensor, Siglec-7-ECD as analyte, 1:1 global fit. As to the method: A panel of antibodies was evaluated for binding to Siglec-7. The results identified anti-Siglec-7 antibodies that have improved KD values compared to commercially available anti-Siglec-7 antibodies (FIG. 7).
Antibody binding analysis was carried out by bio-layer interferometry (ForteBio). […] Antibodies were captured on anti-mouse kinetic sensors at 0.5 ug/mL; Siglec-7-ECD was used as analyte and diluted in assay buffer from 50 nM to 1.56 nM with 2× dilutions. Two-minute associations were conducted, followed by 10-minute dissociations. Results were determined relative to a control empty reference AHC sensor, and analyzed using ForteBio analysis software with 1:1 global fit parameters.
B1: binding was put at a Kd of 0.26 nM.

Another experiment has as its target T1, Siglec-7-ECD. The experiment in a line: monovalent Fab; bio-layer interferometry (ForteBio) per Methods. A general note: Biolayer interferometry detects binding as a change in optical thickness at a sensor tip.
Turning to B2, the Kd (commonly the equilibrium constant for the complex coming apart) was less than 0.075 nM.
Still for that read-out and setting: the value for B3 was less than 0.075 nM; that for B4 was less than 0.075 nM.
Same read-out and setting: the value for B5 was less than 0.075 nM; that for B6 was less than 0.075 nM; that for B7 was less than 0.075 nM.
Still for that read-out and setting: under B8 stands 0.15 to 0.25 nM.
Regarding B9, the Kd was more than 0.5 nM.
Same read-out and setting: the value for B10 was less than 0.075 nM.
In turn, B11 yielded a dissociation constant Kd of less than 0.075 nM.
Same read-out and setting: the value for B12 was 0.25 nM; that for B13 was more than 0.5 nM.
The same measure, in the same setting: the value for B14 was 0.075 to 0.15 nM; that for B15 was more than 0.5 nM.
B16: the dissociation constant Kd is more than 0.5 nM.
The molecule B17 displayed a Kd of less than 0.075 nM.
On the same count and under the same terms, the value for B18 was more than 0.5 nM; that for B19 was 0.075 to 0.15 nM.
On the same count and under the same terms, the value for B20 was less than 0.1 nM.
Still for that read-out and setting: under B21 stands 0.25 to 0.5 nM.
In the case of B22, the Kd is less than 0.1 nM.
Molecule B23 displayed a Kd of more than 0.5 nM.
The same measure, in the same setting: under B24 stands less than 0.075 nM; under B25, more than 0.5 nM.
Still for that read-out and setting: under B26 stands more than 0.5 nM; under B27, 0.1 to 0.15 nM; under B28, less than 0.1 nM.
Still for that read-out and setting: under B29 stands less than 0.075 nM; under B30, more than 0.5 nM; under B31, less than 0.075 nM.
Molecule B32 had a Kd of 0.25 to 0.5 nM.
Still for that read-out and setting: the value for B33 was 0.05 to 0.1 nM; that for B34 was less than 0.1 nM.
On the same count and under the same terms, the value for B35 was 0.25 to 0.5 nM.
Still for that read-out and setting: under B36 stands 0.075 to 0.15 nM; under B37, less than 0.075 nM.

Another experiment deals with Siglec-7 on primary human cells (NK cells, CD8+ tumor-infiltrating T cells) (human, UniProt Q9Y286 19-467). The experiment in a line: cell-based or functional assay.
Sequence of Siglec-7 on primary human cells (NK cells, CD8+ tumor-infiltrating T cells) (Q9Y286 19-467 limits assumed): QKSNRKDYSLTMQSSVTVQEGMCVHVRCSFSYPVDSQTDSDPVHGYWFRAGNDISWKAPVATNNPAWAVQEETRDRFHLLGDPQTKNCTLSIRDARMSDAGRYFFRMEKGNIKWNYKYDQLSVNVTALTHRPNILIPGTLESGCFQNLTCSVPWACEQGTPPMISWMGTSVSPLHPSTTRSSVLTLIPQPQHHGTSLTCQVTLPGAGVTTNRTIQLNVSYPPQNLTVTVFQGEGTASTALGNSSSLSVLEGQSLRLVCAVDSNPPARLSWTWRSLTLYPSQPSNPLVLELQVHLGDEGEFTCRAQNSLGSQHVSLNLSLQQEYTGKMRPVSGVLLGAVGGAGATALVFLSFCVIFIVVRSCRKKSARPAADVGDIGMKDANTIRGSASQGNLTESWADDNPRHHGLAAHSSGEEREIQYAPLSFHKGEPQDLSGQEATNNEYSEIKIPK
On to B38, for which the “IC50 of Siglec-7 internalization on NK cells (24 h, PBMC; remaining surface Siglec-7 stained with 4B12-AF647)” value amounted to 0.0175 nM.
